B1: Azoarcus group I ribozyme (parent)
chain: GUGCCUUGCGCCGGGAAACCACGCAAGGGAUGGUGUCAAAUUCGGCGAAACCUAAGCGCCCGCCCGGGCGUAUGGCAACGCCGAGCCAAGCUUCGGCGCCUGCGCCGAUGAAGGUGUAGAGACUAGACGGCACCCACCUAAGGCAAACGCUAUGGUGAAGGCAUAGUCCAGGGAGUGGCGAAAGUCACACAAACCGG

Variants of B1 are the subject of the series. As to the kind of experiment: reverse-splicing fitness (ratio to wild type); higher = more active; in vitro selection; Mg2+ level not given. The method, boiled down:
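An in vitro group I ribozyme library with randomized positions was T7-transcribed and gel-purified. In triplicate, 10 pmol RNA in EPPS pH 7.5 was reacted with 50 pmoles of a 30-nt RNA substrate for 1 h at 37 °C across several added MgCl2 levels (1–48 mM), then stopped with EDTA. Products were reverse transcribed from a substrate-complementary primer, PCR-amplified and sequenced (HiSeq 4000). Fitness is a variant's read proportion after selection over that before, normalised to wild type.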
For the variant A111C A120C A145G C150A C169U U176G, the reverse-splicing fitness came to 0.00728.

Consider A111C A120C A145G C150A C169U U176A, for which the reverse-splicing fitness came to 0.0207.

A111C A120C A145G C150A C169U U176C: the reverse-splicing fitness is 0.024.

With A111C A120C A145C C150A C169A, the reverse-splicing fitness worked out at 0.00839.

As for A111C A120C A145C C150A C169U, the reverse-splicing fitness is 0.0161.

For the variant A111C A120C A145C C150A C169G, the reverse-splicing fitness is 0.0073.

In the case of A111C A120C A145G C150A C169G U176A, the reverse-splicing fitness is 0.0148.

A111C A120C A145G C150A C169G U176C: the reverse-splicing fitness was found to be 0.0253.

As for A111C A120C A145G C150A C169G U176G, the reverse-splicing fitness stood at 0.00696.

As for C82U A145G C169U U176C, the reverse-splicing fitness was 0.0131.

Take C82U A145G C169U U176A: the reverse-splicing fitness stood at 0.0137.

For the variant C82U A145G C169U U176G, the reverse-splicing fitness is 0.00391.

Take C82U A145G C150G C169A U176A: the reverse-splicing fitness worked out at 0.0146.

Consider C82U A145G C150G C169A U176G, for which the reverse-splicing fitness is 0.00764.

Regarding C82U A145G C150G C169A U176C, the reverse-splicing fitness was determined as 0.0125.

As to A111C A120C A145C C150A, the reverse-splicing fitness stood at 0.0308.

On to A111C A120C A145C C150U, for which the reverse-splicing fitness was 0.175.

With A111C A120C A145C C150G, the reverse-splicing fitness was determined as 0.0702.

As for A111C A120C A145G C169A U176C, the reverse-splicing fitness is 0.0284.

In the case of A111C A120C A145G C169A U176A, the reverse-splicing fitness stood at 0.0222.

With A111C A120C A145G C169A U176G, the reverse-splicing fitness is 0.0054.

For C82U A145U C150A U176G, the reverse-splicing fitness was 0.0221.

Consider C82U A145U C150A U176A, for which the reverse-splicing fitness stood at 0.055.

Regarding C82U A145U C150A U176C, the reverse-splicing fitness stood at 0.0543.

Consider A111C A120C A145U C150A C169A U176C, for which the reverse-splicing fitness worked out at 0.0085.

On to A111C A120C A145U C150A C169A U176A, for which the reverse-splicing fitness came to 0.0108.

As for A111C A120C A145U C150A C169A U176G, the reverse-splicing fitness is 0.0061.

Regarding C82U C150U C169G, the reverse-splicing fitness was found to be 0.00973.

Take C82U C150U C169U: the reverse-splicing fitness is 0.0129.

For C82U C150U C169A, the reverse-splicing fitness amounted to 0.00983.

C82U C169G U176G: the reverse-splicing fitness came out at 0.00406.

On to C82U C169G U176A, for which the reverse-splicing fitness stood at 0.0144.

On to C82U C169G U176C, for which the reverse-splicing fitness was found to be 0.0184.

As for A111C A120C A145C C169A U176A, the reverse-splicing fitness amounted to 0.0126.

With A111C A120C A145C C169A U176C, the reverse-splicing fitness came to 0.00756.

As to A111C A120C A145C C169A U176G, the reverse-splicing fitness was determined as 0.00493.

On to A111C A120C A145C C150G C169G, for which the reverse-splicing fitness was 0.0064.

Take A111C A120C A145C C150G C169U: the reverse-splicing fitness amounted to 0.0267.

Consider A111C A120C A145C C150G C169A, for which the reverse-splicing fitness was determined as 0.00813.

Consider C82U A145U C169A U176C, for which the reverse-splicing fitness was 0.00648.

C82U A145U C169A U176G: the reverse-splicing fitness was 0.00464.

On to C82U A145U C169A U176A, for which the reverse-splicing fitness is 0.00693.

Turning to C82U C150A C169A U176C, the reverse-splicing fitness was 0.0149.

As to C82U C150A C169A U176A, the reverse-splicing fitness is 0.019.

On to C82U C150A C169A U176G, for which the reverse-splicing fitness stood at 0.00489.

With A111C A120C A145C C150A C169A U176A, the reverse-splicing fitness came out at 0.0152.

Regarding A111C A120C A145C C150A C169A U176G, the reverse-splicing fitness worked out at 0.00655.

On to A111C A120C A145C C150A C169A U176C, for which the reverse-splicing fitness was 0.00638.

Regarding C82U A145G C150G C169G U176C, the reverse-splicing fitness was found to be 0.0124.

As for C82U A145G C150G C169G U176A, the reverse-splicing fitness is 0.01.

C82U A145G C150G C169G U176G: the reverse-splicing fitness came out at 0.00548.

With C82U A145G C150A C169G U176C, the reverse-splicing fitness came to 0.0265.

Turning to C82U A145G C150A C169G U176A, the reverse-splicing fitness turned out to be 0.0162.

On to C82U A145G C150A C169G U176G, for which the reverse-splicing fitness came out at 0.0053.

C82U A145G C150U U176C: the reverse-splicing fitness is 0.372.

C82U A145G C150U U176G: the reverse-splicing fitness is 0.0868.

With C82U A145G C150U U176A, the reverse-splicing fitness came to 0.315.

As for A111C A120C A145G C150A C169U, the reverse-splicing fitness came to 0.0324.

On to A111C A120C A145G C150A C169A, for which the reverse-splicing fitness worked out at 0.0101.

As for A111C A120C A145G C150A C169G, the reverse-splicing fitness stood at 0.00782.

As for A111C A120C A145C C150A C169U U176A, the reverse-splicing fitness was 0.0155.

As for A111C A120C A145C C150A C169U U176G, the reverse-splicing fitness stood at 0.00564.

For A111C A120C A145C C150A C169U U176C, the reverse-splicing fitness worked out at 0.0108.

C82U A145U C150A C169U U176A: the reverse-splicing fitness came to 0.0118.

Turning to C82U A145U C150A C169U U176C, the reverse-splicing fitness came to 0.0101.

For C82U A145U C150A C169U U176G, the reverse-splicing fitness is 0.00535.

Consider A111C A120C A145G C169U, for which the reverse-splicing fitness was determined as 0.184.

With A111C A120C A145G C169A, the reverse-splicing fitness turned out to be 0.0109.

A111C A120C A145G C169G: the reverse-splicing fitness was 0.0102.

Consider C82U A145U C150G C169A U176C, for which the reverse-splicing fitness amounted to 0.00964.

Consider C82U A145U C150G C169A U176G, for which the reverse-splicing fitness amounted to 0.00523.

For C82U A145U C150G C169A U176A, the reverse-splicing fitness amounted to 0.0105.

As for A111C A120C A145C C150U C169U U176G, the reverse-splicing fitness is 0.00555.

As to A111C A120C A145C C150U C169U U176A, the reverse-splicing fitness worked out at 0.0206.

For A111C A120C A145C C150U C169U U176C, the reverse-splicing fitness is 0.0237.

For C82U A145U C150A C169A U176G, the reverse-splicing fitness was found to be 0.00546.

Regarding C82U A145U C150A C169A U176C, the reverse-splicing fitness came out at 0.00744.

As to C82U A145U C150A C169A U176A, the reverse-splicing fitness is 0.0106.

With C82U A145U C150G U176A, the reverse-splicing fitness turned out to be 0.0424.

As for C82U A145U C150G U176C, the reverse-splicing fitness came out at 0.0567.

Turning to C82U A145U C150G U176G, the reverse-splicing fitness turned out to be 0.0104.

Take A111C A120C A145C C150A U176C: the reverse-splicing fitness amounted to 0.0293.

Turning to A111C A120C A145C C150A U176A, the reverse-splicing fitness came out at 0.0203.
